Assay results published in article doi:10.1101/2024.02.21.581285 (bioRxiv, 2024).

Molecular target: the molecule itself
Assay: cryo-EM structure

B1: D. melanogaster copia Gag protein (natural protein)
chain: not shown
stoichiometry N: 540 monomers
